Data on 3 molecules can be found in patent publication US20220025381A1.

Where only a bound is given, the exact number is not on record here.

What all share (assay): cell-based or functional assay
Assay [1] concerns the target T1, CD380 PV1-RfxCas13d-656C-NLS-BGHpA.
T1 sequence: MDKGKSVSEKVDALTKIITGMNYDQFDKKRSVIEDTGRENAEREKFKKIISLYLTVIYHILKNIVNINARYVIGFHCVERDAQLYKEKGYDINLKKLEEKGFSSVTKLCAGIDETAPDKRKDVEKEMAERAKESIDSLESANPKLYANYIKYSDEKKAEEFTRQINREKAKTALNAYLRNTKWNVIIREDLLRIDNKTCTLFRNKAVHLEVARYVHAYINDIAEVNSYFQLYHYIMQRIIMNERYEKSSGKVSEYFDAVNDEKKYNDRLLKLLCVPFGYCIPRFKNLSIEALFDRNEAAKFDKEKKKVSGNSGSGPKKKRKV

Assay [2] concerns the target T2, CD376 PV1-RfxCas13d-566C-NLS-BGHpA.
T2 sequence: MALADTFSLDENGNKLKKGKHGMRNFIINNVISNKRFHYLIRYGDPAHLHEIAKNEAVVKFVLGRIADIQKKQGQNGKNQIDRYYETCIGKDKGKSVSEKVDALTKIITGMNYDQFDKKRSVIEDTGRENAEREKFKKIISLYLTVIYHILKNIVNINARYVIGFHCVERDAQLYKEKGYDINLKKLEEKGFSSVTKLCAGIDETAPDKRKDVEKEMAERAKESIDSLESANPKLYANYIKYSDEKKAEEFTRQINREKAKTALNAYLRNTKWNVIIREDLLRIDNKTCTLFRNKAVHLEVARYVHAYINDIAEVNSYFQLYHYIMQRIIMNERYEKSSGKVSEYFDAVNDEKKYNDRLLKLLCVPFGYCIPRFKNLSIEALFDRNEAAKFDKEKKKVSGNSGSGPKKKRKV

Assay [3] addresses T3, CD400 PV1-GAI-L1-RfxCas13d-264C-NLS-BGHpA.
T3 sequence: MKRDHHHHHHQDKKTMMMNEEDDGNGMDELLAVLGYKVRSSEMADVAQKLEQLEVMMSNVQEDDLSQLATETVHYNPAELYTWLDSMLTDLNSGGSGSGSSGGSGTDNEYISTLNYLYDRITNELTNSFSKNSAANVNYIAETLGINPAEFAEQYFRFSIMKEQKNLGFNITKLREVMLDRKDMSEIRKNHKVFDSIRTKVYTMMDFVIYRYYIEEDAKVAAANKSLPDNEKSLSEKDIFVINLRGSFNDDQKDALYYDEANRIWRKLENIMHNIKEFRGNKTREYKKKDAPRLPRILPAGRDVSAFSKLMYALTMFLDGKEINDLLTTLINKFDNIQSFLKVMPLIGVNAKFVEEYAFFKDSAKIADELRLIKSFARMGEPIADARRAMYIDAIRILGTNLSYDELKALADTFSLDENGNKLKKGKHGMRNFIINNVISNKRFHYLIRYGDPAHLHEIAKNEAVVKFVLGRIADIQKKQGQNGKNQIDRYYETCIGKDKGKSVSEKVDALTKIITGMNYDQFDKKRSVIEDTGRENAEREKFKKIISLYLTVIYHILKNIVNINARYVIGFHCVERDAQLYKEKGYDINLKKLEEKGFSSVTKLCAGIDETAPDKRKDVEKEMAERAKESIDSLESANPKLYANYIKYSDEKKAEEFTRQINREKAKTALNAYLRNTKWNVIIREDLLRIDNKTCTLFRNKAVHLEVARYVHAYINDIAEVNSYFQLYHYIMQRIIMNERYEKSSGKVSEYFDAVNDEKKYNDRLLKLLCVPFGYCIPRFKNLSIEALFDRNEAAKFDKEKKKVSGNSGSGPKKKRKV

B1: CD379 PV1-RfxCas13d-N655-NLS-BGHpA (protein)
chain: MIEKKKSFAKGMGVKSTLVSGSKVYMTTFAEGSDARLEKIVEGDSIRSVNEGEAFSAEMADKNAGYKIGNAKFSHPKGYAVVANNPLYTGPVQQDMLGLKETLEKRYFGESADGNDNICIQVIHNILDIEKILAEYITNAAYAVNNISGLDKDIIGFGKFSTVYTYDEFKDPEHHRAAFNNNDKLINAIKAQYDEFDNFLDNPRLGYFGQAFFSKEGRNYIINYGNECYDILALLSGLRHWVVHNNEEESRISRTWLYNLDKNLDNEYISTLNYLYDRITNELTNSFSKNSAANVNYIAETLGINPAEFAEQYFRFSIMKEQKNLGFNITKLREVMLDRKDMSEIRKNHKVFDSIRTKVYTMMDFVIYRYYIEEDAKVAAANKSLPDNEKSLSEKDIFVINLRGSFNDDQKDALYYDEANRIWRKLENIMHNIKEFRGNKTREYKKKDAPRLPRILPAGRDVSAFSKLMYALTMFLDGKEINDLLTTLINKFDNIQSFLKVMPLIGVNAKFVEEYAFFKDSAKIADELRLIKSFARMGEPIADARRAMYIDAIRILGTNLSYDELKALADTFSLDENGNKLKKGKHGMRNFIINNVISNKRFHYLIRYGDPAHLHEIAKNEAVVKFVLGRIADIQKKQGQNGKNQIDRYYETCIGKPKKKRKV
As to B1, the gRNA induced knockdown of mCherry without CID domains in assay [1] is < 80%.

B2: CD375 PV1-RfxCas13d-N565-NLS-BGHpA (protein)
chain: MIEKKKSFAKGMGVKSTLVSGSKVYMTTFAEGSDARLEKIVEGDSIRSVNEGEAFSAEMADKNAGYKIGNAKFSHPKGYAVVANNPLYTGPVQQDMLGLKETLEKRYFGESADGNDNICIQVIHNILDIEKILAEYITNAAYAVNNISGLDKDIIGFGKFSTVYTYDEFKDPEHHRAAFNNNDKLINAIKAQYDEFDNFLDNPRLGYFGQAFFSKEGRNYIINYGNECYDILALLSGLRHWVVHNNEEESRISRTWLYNLDKNLDNEYISTLNYLYDRITNELTNSFSKNSAANVNYIAETLGINPAEFAEQYFRFSIMKEQKNLGFNITKLREVMLDRKDMSEIRKNHKVFDSIRTKVYTMMDFVIYRYYIEEDAKVAAANKSLPDNEKSLSEKDIFVINLRGSFNDDQKDALYYDEANRIWRKLENIMHNIKEFRGNKTREYKKKDAPRLPRILPAGRDVSAFSKLMYALTMFLDGKEINDLLTTLINKFDNIQSFLKVMPLIGVNAKFVEEYAFFKDSAKIADELRLIKSFARMGEPIADARRAMYIDAIRILGTNLSYDELKPKKKRKV
On to B2, for which, in assay [2], the gRNA induced knockdown of mCherry without CID domains was < 80%.

B3: CD399 PV1-RfxCas13d-N263-L1-GID-NLS-BGHpA (protein)
chain: MIEKKKSFAKGMGVKSTLVSGSKVYMTTFAEGSDARLEKIVEGDSIRSVNEGEAFSAEMADKNAGYKIGNAKFSHPKGYAVVANNPLYTGPVQQDMLGLKETLEKRYFGESADGNDNICIQVIHNILDIEKILAEYITNAAYAVNNISGLDKDIIGFGKFSTVYTYDEFKDPEHHRAAFNNNDKLINAIKAQYDEFDNFLDNPRLGYFGQAFFSKEGRNYIINYGNECYDILALLSGLRHWVVHNNEEESRISRTWLYNLDKNLSGGSGSGSSGGSGTMAASDEVNLIESRTVVPLNTWVLISNFKVAYNILRRPDGTFNRHLAEYLDRKVTANANPVDGVFSFDVLIDRRINLLSRVYRPAYADQEQPPSILDLEKPVDGDIVPVILFFHGGSFAHSSANSAIYDTLCRRLVGLCKCVVVSVNYRRAPENPYPCAYDDGWIALNWVNSRSWLKSKKDSKVHIFLAGDSSGGNIAHNVALRAGESGIDVLGNILLNPMFGGNERTESEKSLDGKYFVTVRDRDWYWKAFLPEGEDREHPACNPFSPRGKSLEGVSFPKSLVVVAGLDLIRDWQLAYAEGLKKAGQEVKLMHLEKATVGFYLLPNNNHFHNVMDEISAFVNAECPKKKRKV
Take B3: the knockdown efficiency of mCherry with gibberellin and gRNA in assay [3] was > 60%.
